The values below come from patent publication US20240150440A1 (LUMEN BIOSCIENCE, published 2024).

As usually defined, the EC50 is the concentration at which the effect is half-maximal. A lower EC50 goes with greater potency.

The target in assay [1] is T1, SARS-CoV-2 spike protein on pseudotyped lentivirus (Wuhan Reference Pseudovirus) (SARS-CoV-2, UniProt P0DTC2 14-1273). Kind of assay: cell-based or functional assay.
For assay [2], the target named is T1, SARS-CoV-2 spike protein on pseudotyped …. In words: cell-based or functional assay. The source holds these as a separate data set.
The target is the same in assay [3]. Kind of assay: cell-based or functional assay. This is another data set of the same source.
Assay [4] deals with T2, SARS-CoV-2 Gamma Variant RBD (SARS-CoV-2 Gamma variant).
T2 construct: domain: RBD; coated on ELISA plates
Kind of assay: ELISA, RBD coated. (In general: ELISA stands for enzyme-linked immunosorbent assay.)

In assay [5] the target is T3, SARS-CoV-2 Delta Variant RBD (SARS-CoV-2 Delta variant).
T3 construct: domain: RBD; coated on ELISA plates
In words: ELISA, RBD coated.

The target in assay [6] is T4, SARS-CoV-2 Beta Variant RBD (SARS-CoV-2 Beta variant).
T4 construct: domain: RBD; coated on ELISA plates
In words: ELISA, RBD coated.

Assay [7] deals with T5, SARS-CoV-2 Alpha Variant RBD (SARS-CoV-2 Alpha variant).
T5 construct: domain: RBD; coated on ELISA plates
Kind of assay: ELISA, RBD coated.

B1: PP1144 MBP-5HVZ-PAPA-R2c-F6-H6 (VHH)
VHH: QVQLVESGGGLVQPGGSLRLSCAASGRILAANIVHWYRQAPGKEREGVAGITTGGSNYYSDSVKGRFTISRDNAKNTVYLQMNSLKPEDTAVYYCNALGLGSASGSYESWGQGTQVTVSS
notes: Form: Dimer
Consider B1, for which the “Pseudovirus inhibition IC50 [Cont. 1]” value in assay [1] turned out to be 2.75 nM. In assay [2], the “Pseudovirus neutralization IC50” value turned out to be 11.9 nM. Further, the “infectivity % under 10 ug/mL VHH treatment” value (shortened to “infectivity %”) in assay [3] is 9.18%.

B2: PP1156 MPB-scTRP-PAPA-R2c-F6-H6 (VHH)
VHH: B1 VHH
notes: Form: Trimer
As for B2, the “Pseudovirus inhibition IC50 [Cont. 1]” value in assay [1] was found to be 63.8 nM. In assay [2], the “Pseudovirus neutralization IC50” value stood at 36.8 nM. In addition, the “infectivity %” value in assay [3] was 18.1%.

B3: PP1132 MBP-4B0F-PAPA-R2c-F6-H6 (VHH)
VHH: B1 VHH
notes: Form: Heptamer
For the molecule B3, the “Pseudovirus inhibition IC50 [Cont. 1]” value in assay [1] turned out to be 5.66 nM. For the same molecule, the “Pseudovirus neutralization IC50” value in assay [2] is 4.14 nM. The “infectivity %” value in assay [3] came out at 2.65%.

B4: PP1134 MBP-4B0F-PAPA-R2d-D3-H6 (VHH)
VHH: QVQLVESGGGLVQPGGSLRLSCAASGHIFSINNAAWVRQAPGKSREGVATIHSGGGTYYSDSVKGRFTISRDNAKNTVYLQMNSLKPEDTAVYYCNAEVSTGAGSRGRVSDVYWGQGTQVTVSS
notes: Form: Heptamer
On to B4, for which the “Pseudovirus inhibition IC50 [Cont. 1]” value in assay [1] turned out to be 5.99 nM. Also, the “Pseudovirus neutralization IC50” value in assay [2] came out at 3.97 nM. Moreover, in assay [3], the “infectivity %” value was 10.9%.

B5: PP1145 MBP-5HVZ-PAPA-R2d-A6-H6 (VHH)
VHH: QVQLVESGGGLVQPGGSLRLSCAASGSGASIGAMHWFRQAPGKGREWVASITSAGNTYYGDSVKGRFTISRDNAKNTVYLQMNSLKPEDTAVYYCNALAGANYESQWEEYNYWGQGTQVTVSS
notes: Form: Dimer
As to B5, in assay [2], the “Pseudovirus neutralization IC50” value was found to be 146 nM. Moreover, the EC50 in assay [4] was found to be 5.49 nM; in assay [5], 89 nM; in assay [6], 30.9 nM; in assay [7], 1.94 nM. For the same molecule, the “infectivity %” value in assay [3] stood at 65.2%.

B6: PP1133 MBP-4B0F-PAPA-R2d-A6-H6 (VHH)
VHH: B5 VHH
notes: Form: Heptamer
Turning to B6, the “Pseudovirus inhibition IC50 [Cont. 1]” value in assay [1] was 180 nM. In assay [2], the “Pseudovirus neutralization IC50” value stood at 186 nM. Moreover, the “infectivity %” value in assay [3] came out at 48.1%.

B7: PP1154 MBP-5HVZ-PAPA-R5d-G1-H6 (VHH)
VHH: QVQLVESGGGLVQPGGSLRLSCAASGSIFGINDVHWFRQAPGKEREFVATITNGLSARYKDSVKGRFTISRDNAKNTVYLQMNSLKPEDTAVYYCAAQVYITTYELYDYWGQGTQVTVSS
notes: Form: Dimer
As to B7, the “Pseudovirus neutralization IC50” value in assay [2] was determined as 272 nM. Moreover, the EC50 in assay [4] came to 15.8 nM; in assay [5], 221 nM; in assay [6], 24.7 nM; in assay [7] it was 2.37 nM. Moreover, the “infectivity %” value in assay [3] came to 53.2%.

B8: PP1104 MBP-5HVZ-PAPA-RN-19-H6 (VHH)
VHH: QVQLVESGGGLVQPGGSLRLSCAASGIDDSIGAMHWFRQAPGKGREFVAALSGTGTTSYADSVKGRFTISRDNAKNTVYLQMNSLKPEDTAVYYCAAAFPAGGDYWGQGTQVTVSS
notes: Form: Dimer
On to B8, for which the EC50 in assay [4] turned out to be 29.5 nM; in assay [5], 295 nM; in assay [6], 44.9 nM; in assay [7] it was 1.09 nM. Besides, the “infectivity %” value in assay [3] amounted to 73.8%.

B9: PP1105 MBP-5HVZ-PAPA-RN-20-H6 (VHH)
VHH: QVQLVESGGGLVQPGGSLRLSCAASGNYFEINKMHWFRQAPGKQREFVATIGSGGSTAYADSVKGRFTISRDNAKNTVYLQMNSLKPEDTAVYYCNALIYLADRRDGYYSYDYWGQGTQVTVSS
notes: Form: Dimer
Consider B9, for which the EC50 in assay [4] is 15.4 nM; in assay [5], 36.6 nM; in assay [6], 26.6 nM; in assay [7], 1.41 nM. The “infectivity %” value in assay [3] is 79.8%.
